Experiments:
[1] = molecular target: T1, avirulence protein B (AvrB), wild type (Pseudomonas syringae pv. glycinea), P13835; experiment: ITC; VP-ITC microcalorimeter; RIN4_(142–176) peptide (50 to 450 μM) titrated in 6-μl injections into 5 to 25 μM wild-type or variant AvrB, stirring at 255 rpm; wild-type AvrB 6 μM with full-length RIN4 120 μM; nonbinding confirmed at as much as 25 μM and 450 μM; details: remark: other sources report otherwise
[2] = molecular target: T1, avirulence protein B (AvrB), wild type …; experiment: as above; details: remark: other sources report otherwise; remark: listed apart in the source

T1 sequence (P13835 whole entry): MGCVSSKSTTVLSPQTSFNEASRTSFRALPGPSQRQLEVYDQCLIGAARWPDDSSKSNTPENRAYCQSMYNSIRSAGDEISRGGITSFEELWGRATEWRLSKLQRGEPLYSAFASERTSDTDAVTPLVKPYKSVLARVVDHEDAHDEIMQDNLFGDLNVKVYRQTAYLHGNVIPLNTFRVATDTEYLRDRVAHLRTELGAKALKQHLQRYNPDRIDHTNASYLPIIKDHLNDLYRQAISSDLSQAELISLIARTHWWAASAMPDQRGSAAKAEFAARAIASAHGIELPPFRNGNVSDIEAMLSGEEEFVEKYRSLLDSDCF

B1: full-length RIN4, Q8GYN5 1-211 (natural protein)
chain: MARSNVPKFGNWEAEENVPYTAYFDKARKTRAPGSKIMNPNDPEYNSDSQSQAPPHPPSSRTKPEQVDTVRRSREHMRSREESELKQFGDAGGSSNEAANKRQGRASQNNSYDNKSPLHKNSYDGTGKSRPKPTNLRADESPEKVTVVPKFGDWDENNPSSADGYTHIFNKVREERSSGANVSGSSRTPTHQSSRNPNNTSSCCCFGFGGK
Kd [1]: 1000 nM
Kd [2]: 4 µM

From paper PMC1839166, “Type III Effector Activation via Nucleotide Binding, Phosphorylation, and Host Target Interaction” (PLoS Pathogens, 2007)
